Data published in publication PMC6996395 (FASEB bioAdvances, 2019).

Molecular target: Split-CFTR front half (N-term-TMD1-NBD1; aa 1-634) (UniProt P13569 1-634)
Assay: proximity ligation

Chain of Split-CFTR front half (N-term-TMD1-NBD1; aa 1-634) (P13569 1-634): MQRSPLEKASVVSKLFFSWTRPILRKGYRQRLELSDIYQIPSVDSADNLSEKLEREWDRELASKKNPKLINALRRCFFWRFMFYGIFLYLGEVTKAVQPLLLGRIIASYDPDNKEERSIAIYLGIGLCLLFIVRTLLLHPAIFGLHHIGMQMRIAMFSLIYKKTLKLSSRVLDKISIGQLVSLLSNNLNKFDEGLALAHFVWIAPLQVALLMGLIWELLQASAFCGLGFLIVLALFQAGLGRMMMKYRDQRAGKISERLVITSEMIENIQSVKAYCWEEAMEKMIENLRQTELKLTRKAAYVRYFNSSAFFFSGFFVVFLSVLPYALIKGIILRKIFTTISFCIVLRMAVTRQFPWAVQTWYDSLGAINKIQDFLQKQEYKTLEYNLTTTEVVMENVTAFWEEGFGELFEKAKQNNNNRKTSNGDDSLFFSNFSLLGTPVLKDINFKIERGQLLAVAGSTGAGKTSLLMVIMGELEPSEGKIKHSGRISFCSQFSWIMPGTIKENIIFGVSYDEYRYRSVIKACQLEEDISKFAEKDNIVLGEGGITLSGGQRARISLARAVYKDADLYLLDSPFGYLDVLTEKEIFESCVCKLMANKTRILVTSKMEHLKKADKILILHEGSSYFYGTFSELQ

B1: CFTR R-region R-6CA (S641A/T682A/S707A/S790A/T791A/S809A; aa 635-836) (domain or fragment, UniProt P13569 635-836, looked up)
chain: NLQPDFASKLMGCDSFDQFSAERRNSILTETLHRFSLEGDAPVSWTEAKKQSFKQTGEFGEKRKNSILNPINAIRKFSIVQKTPLQMNGIEEDSDEPLERRLSLVPDSEQGEAILPRISVISTGPTLQARRRQSVLNLMTHSVNQGQNIHRKTTAAARKVSLAPQANLTELDIYARRLSQETGLEISEEINEEDLKECFFDD
With B1 the “CTCF of PLA signal (after PKA stimulation)” value was 1.4, the “CTCF of PLA signal (after PKC + PKA stimulation)” value was 5.28 and the “CTCF of PLA signal (after PKC stimulation)” value was 5.54. The “CTCF of PLA signal (basal)” value was 0.33.
